These results are taken from EP2002021B1.

What all share (assay): cell-based or functional assay
The target of assay [1] is EGFR-TEV-NIa-Pro cleavage (Leu)-tTA (human) (UniProt P00533).
Assay [2] has as its target CCR5-tTA fusion construct containing the low efficiency cleavage site (UniProt P51681).
The target in assay [3] is IGF1R-TEV-NIa-Pro cleavage (Leu)-tTA (human) (UniProt P08069).
Chain of UniProt P08069 (P08069 whole entry, form in doubt): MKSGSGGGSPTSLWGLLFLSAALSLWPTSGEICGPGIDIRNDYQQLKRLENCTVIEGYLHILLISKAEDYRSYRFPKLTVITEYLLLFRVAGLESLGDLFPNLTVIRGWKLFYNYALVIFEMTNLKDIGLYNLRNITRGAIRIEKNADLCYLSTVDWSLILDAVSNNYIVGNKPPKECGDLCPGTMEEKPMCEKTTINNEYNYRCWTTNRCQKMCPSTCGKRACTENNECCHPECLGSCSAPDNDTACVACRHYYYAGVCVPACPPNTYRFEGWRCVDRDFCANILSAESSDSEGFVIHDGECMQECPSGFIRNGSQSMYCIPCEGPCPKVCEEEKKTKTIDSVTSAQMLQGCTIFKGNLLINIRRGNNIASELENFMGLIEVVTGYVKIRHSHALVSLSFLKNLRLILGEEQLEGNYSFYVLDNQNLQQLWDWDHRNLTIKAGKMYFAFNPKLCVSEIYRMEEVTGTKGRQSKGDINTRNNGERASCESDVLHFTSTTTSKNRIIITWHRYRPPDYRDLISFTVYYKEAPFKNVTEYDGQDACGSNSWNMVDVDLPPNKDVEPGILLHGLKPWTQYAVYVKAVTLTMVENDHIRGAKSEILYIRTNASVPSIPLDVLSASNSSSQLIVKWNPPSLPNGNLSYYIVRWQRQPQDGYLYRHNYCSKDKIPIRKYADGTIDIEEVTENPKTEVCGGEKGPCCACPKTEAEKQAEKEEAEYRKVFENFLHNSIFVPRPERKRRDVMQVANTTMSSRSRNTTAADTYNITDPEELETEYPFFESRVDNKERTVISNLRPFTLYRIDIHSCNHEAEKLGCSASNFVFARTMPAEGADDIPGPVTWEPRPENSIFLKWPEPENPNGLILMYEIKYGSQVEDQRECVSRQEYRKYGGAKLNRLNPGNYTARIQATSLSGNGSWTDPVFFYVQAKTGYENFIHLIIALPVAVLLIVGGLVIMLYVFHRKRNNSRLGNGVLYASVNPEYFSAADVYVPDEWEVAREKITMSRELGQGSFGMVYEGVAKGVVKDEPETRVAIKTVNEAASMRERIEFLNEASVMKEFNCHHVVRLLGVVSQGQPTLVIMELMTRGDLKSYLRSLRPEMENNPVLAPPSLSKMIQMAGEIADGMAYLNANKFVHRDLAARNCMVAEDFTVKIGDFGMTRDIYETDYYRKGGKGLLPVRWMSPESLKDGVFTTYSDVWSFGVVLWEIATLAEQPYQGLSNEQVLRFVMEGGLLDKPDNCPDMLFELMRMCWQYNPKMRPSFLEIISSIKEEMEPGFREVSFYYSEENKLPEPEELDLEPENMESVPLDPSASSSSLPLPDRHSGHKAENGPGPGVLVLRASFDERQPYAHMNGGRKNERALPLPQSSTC

Chain of UniProt P51681 (P51681 whole entry, form in doubt, the tested form may be a part): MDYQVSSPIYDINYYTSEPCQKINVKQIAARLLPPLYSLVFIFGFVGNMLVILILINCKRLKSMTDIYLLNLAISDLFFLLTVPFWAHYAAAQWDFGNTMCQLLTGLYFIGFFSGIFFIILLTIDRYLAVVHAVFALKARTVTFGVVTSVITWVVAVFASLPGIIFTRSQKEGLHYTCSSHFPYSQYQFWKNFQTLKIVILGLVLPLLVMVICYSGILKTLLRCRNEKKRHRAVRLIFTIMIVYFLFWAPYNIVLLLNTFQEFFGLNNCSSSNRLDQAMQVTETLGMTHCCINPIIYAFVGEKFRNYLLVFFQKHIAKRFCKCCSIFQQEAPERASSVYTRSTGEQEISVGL

In the case of PLC Gamma1-TEV, in assay [1], the fold increase of luciferase reporter gene activity, 2.5 ng/ml EGF was determined as 12.3 fold and the fold increase of luciferase reporter gene activity, 100 ng/ml TGF-alpha amounted to 18.3 fold.

“Regulated on Activation, Normal T-Cell Expressed and Secreted (RANTES) (from UniProt P13501 24-91) (ligand)” showed a fold induction of reporter gene expression over the background, 1 µg/ml RANTES, clone 34 cells in assay [2] of 40 fold.

The substance SHC1-TEV (from UniProt P29353 1-238) displayed a fold increase of luciferase reporter gene activity, 1 µM IGF-1 in assay [3] of 90 fold.

Consider “human Transforming Growth Factor - Alpha (from UniProt P01135 40-89) (ligand)”, for which the fold increase of luciferase reporter gene activity, 100 ng/ml TGF-alpha in assay [1] came to 18.3 fold.
